Source: US8540999B2, “Allergenic proteins and peptides from Japanese cedar pollen” (Merck Patent GmbH, priority 1991, dated 2013)

Tests used:
[1] = tested on: Secondary T cell cultures reactive with Cry j I protein antigen; assay: In vitro T cell proliferation assay, secondary T cell cultures of 36 Cry j I-allergic subjects, percent T cell reactivity algorithm; type: cell-based, human; conditions: patient 1308; highest S.I. >= 2.0 recorded per peptide
[2] = tested on: Cry j I reactive T cells; assay: T cell proliferation assay, Cry j I primed T cell lines (Example 6); type: cell-based, human
Method: Viable cells were purified by LSM centrifugation and cultured in complete medium supplemented with 5 units recombinant human IL-2/ml and 5 units recombinant human IL-4/ml for up to three weeks until the cells no longer responded to lymphokines and were considered “rested”. The ability of the T cells to proliferate to selected peptides, recombinant Cry j I (rCry j I), purified native Cry j I, or recombinant Amb aI.1 (rAmb aI.1) or a positive control, phyto-hemaglutinin (PHA) was then assessed. For assay, 2×10^4 rested cells were restimulated in the presence of 2×10^4 autologous Epstein-Barr virus (EBV)-transformed B cells (prepared as described below) (gamma-irradiated with 25,000 RADS) with 2-50 μg/ml of selected peptides, Cry j I, purified native Cry j I or rAmb a I.1 or PHA, in a volume of 200 μl complete medium in duplicate or triplicate wells in 96-well round bottom plates for 2-4 days. […] Each well then received 1 μCi tritiated thymidine for 16-20 hours. The counts incorporated were collected onto glass fiber filter mats and processed for liquid scintillation counting. […] The titrations were used to optimize the dose of peptides in T cell assays. The maximum response in a titration of each peptide is expressed as the stimulation index (S.I.). The S.I. is the counts per minute (CPM) incorporated by cells in response to peptide, divided by the CPM incorporated by cells in medium only.
The above procedure was followed with a number of other patients. […] The bars represent the positivity index. Above each bar is the percent of positive responses with an S.I. of at least two to the peptide or protein in the group of patients tested. In parenthesis above each bar are the mean stimulation indices for each peptide or protein for the group of patients tested.
Autologous EBV-transformed cell lines were y-irradiated with 25,000 Rad and used as antigen presenting cells in secondary proliferation assays and secondary bulk stimulations. These EBV-transformed cell lines were made by incubating 5×10^6 PBL with 1 ml of B-59/8 Marmoset cell line (ATCC CRL1612, American Type Culture Collection, Rockville, Md.) conditioned medium in the presence of 1 μg/ml phorbol 12-myristate 13-acetate (PMA) at 37° C. for 60 minutes in 12×75 mm polypropylene round-bottom Falcon snap cap tubes (Becton Dickinson Labware, Lincoln Park, N.J.). These cells were then diluted to 1.25×10^6 cells/ml in RPMI-1640 as described above except supplemented with 10% heat-inactivated fetal bovine serum and cultured in 200 μl aliquots in flat bottom culture plates until visible colonies were detected. They were then transferred to larger wells until the cell lines were established.

[3] = tested on: human allergic IgE; assay: Capture ELISA with MAb CBF2; type: binding; conditions: pooled human plasma (15 patients), FIG. 10a
Method: Another method of analysis that was applied to the examination of IgE reactivity to the recombinant Cry j I was a capture ELISA. This analysis relies on the use of a defined antibody, in this case CBF2 to bind the antigen and allow for the binding of antibodies to other epitope sites. The format of this capture ELISA is 1) wells are coated with MAb CBF2, 2) antigen or PBS (as one type of negative control) is added and captured by specific interaction with the coated MAb, 3) either the control antibody anti-Amb a I & II (FIG. 10b) or human allergic plasma (FIG. 10a) is added as the detecting antibody, and 4) detection of antibody binding is assayed. FIGS. 10a and 10b are the graphed results of these assays. For the IgE analysis, the pooled human plasma (PHP) (15 patients) was used.

[4] = tested on: human basophil; assay: Histamine release assay; type: cell-based; conditions: one Japanese cedar pollen allergic patient, FIG. 11
Method: To determine whether a peptide which binds IgE results in the release of mediators, a histamine release assay can be performed using standard reagents and protocols obtained for example, from Amac, Inc. (Westbrook, Me.). Briefly, a buffered solution of a peptide to be tested is combined with an equal volume of whole heparinized blood from an allergic subject. After mixing and incubation, the cells are pelleted and the supernatants are processed an analyzed using a radioimmunoassay to determine the amount of histamine released.
A histamine release assay was performed on one Japanese cedar pollen allergic patient using Japanese cedar pollen SPE, purified native Cry j I and rCry j I as the added antigens. This assay is a measure of IgE reactivity through human basophil mediator release. […] Two possible explanations for this release by the rCry j I are: 1) specific reactivity with a very low proportion of the anti-Cry j I IgE capable of recognizing the recombinant form of Cry j I, or 2) non-specific release caused by low abundance of bacterial contaminants observed only at the highest antigen concentration. […] In addition, the data shown are from single data points at each protein concentration.

[5] = tested on: allergic patient IgE; assay: Direct ELISA, IgE binding to rCry j I and Cry j I peptides (Example 8); design: species or system human
Method: The recombinant Cry j I protein (rCry j I), expressed in bacteria and then purified (as described in Example 5), has been examined for IgE reactivity. The first method applied to this examination was direct ELISA where wells were coated with the recombinant Cry j I and IgE binding was assayed on individual patients. FIG. 9 is the graphic representation of this direct ELISA.
To analyze IgE reactivity to selected Cry j I peptides a direct ELISA format was used. ELSIA wells were coated with 25 peptides derived from Cry j I and assayed for IgE binding. FIG. 15a and 15b are graphs of these binding results using PHP (15 patients) as the cedar pollen allergic IgE source. This pool of plasma was formulated for enrichment of IgE that could bind to denatured SPE (as determined by direct ELISA) and therefore increase the chance of reactivity toward the peptides.

[6] = tested on: IgE; assay: RAST, competition ELISA and Western blotting (data not shown); type: binding, human

Row | Molecule | STIMULATION INDEX [1] | T cell line response ([2]; panel of twenty-five patients, FIG. 14) | percent of positive responses with an S.I. of at least two ([2]; 25 patients / T cell lines, FIG. 14) [%] | T cell proliferative response ([2]; patient #999, FIG. 12) | specific binding of human allergic IgE, capture ELISA [3] | histamine release [4] | IgE binding, direct ELISA ([5]; PHP (15 patients), FIG. 15) | IgE reactivity, direct ELISA ([5]; individual patients, FIG. 9) | specific IgE reactivity [6]
1 | CJ1-30: Cry j I peptide, SEQ ID NO: 55 (CSNWVWQSTQDVFYNGAYFV; listed as Cryptomeria japonica) | 0 | responded | – | – | – | – | – | – | –
2 | rCry j I: recombinant Cry j I protein expressed in bacteria (E. coli) and purified (protein, left off: small tags and cut ends, recombinant Cry j I protein expressed in bacteria (E. coli) and purified) DNPIDSCWRGDSNWAQNRMKLADCAVGFGSSTMGGKGGDLYTVTNSDDDPVNPAPGTLRYGATRDRPLWIIFSGNMNIKLKMPMYIAGYKTFDGRGAQVYIGNGGPCVFIKRVSNVIIHGLYLYGCSTSVLGNVLINESFGVEPVHPQDGDALTLRTATNIWIDHNSFSNSSDGLVDVTLTSTGVTISNNLFFNHHKVMLLGHDDAYSDDKSMKVTVAFNQFGPNCGQRMPRARYGLVHVANNNYDPWTIYAIGGSSNPTILSEGNSFTAPNESYKKQVTIRIGCKTSSSCSNWVWQSTQDVFYNGAYFVSSGKYEGGNIYTKKEAFNVENGNATPQLTKNAGVLTCSLSKRC | – | – | 68.0 | responds well | no indication of any specific binding | only point where there is any measurable histamine release with the Cry j I is at the highest concentration | does not bind | no IgE reactivity | no specific IgE reactivity
